Where no end group is shown, it is not given here. [ ]: non-standard residue; d: D form. αMePhe(2-F) = C[C@](N)(Cc1ccccc1F)C(=O)O; Ac3c = NC1(C(=O)O)CC1
B1: Seq. ID. No. 36: H-(ACP)-QGT-(α-Me-2F-Phe)-TSD-Bip(OMe)-Bip(2CF3) (peptide)
peptide: HXQGTXTSDXX
modifications: not fully specified; ACP at 2; α-Me-2F-Phe at 6; Bip(OMe) at 10; Bip(2CF3) at 11

biological target: Human glucagon receptor (human, UniProt P47871 26-477); experiment: cell-based or functional assay

Question: Which “cAMP production with saturated glucagon peptide; test compound 1 nM” value (from here on “cAMP production … test compound 1 nM”) does the source give for HSQGTXTSDXX (α-Me-2F-Phe at 6; Bip(OMe) at 10; Bip(2Me) at 11) [Seq. ID. No. 21: HSQGT-(α-Me-2F-Phe)-TSD-Bip(OMe)-Bip(2Me)] here?
Answer: Its value is 19 pmol/ml/µg prt.

Question: And the “cAMP production with saturated glucagon peptide; test compound 10 nM” value (shortened to “cAMP production … test compound 10 nM”)?
Answer: The value was 17 pmol/ml/µg prt.

Question: And the “cAMP production with saturated glucagon peptide; test compound 100 nM” value (“cAMP production … test compound 100 nM” for short)?
Answer: The value was 15 pmol/ml/µg prt.

Question: What about the “cAMP production with saturated glucagon peptide; test compound 10 µM” value (“cAMP production … test compound 10 µM” for short) of the same binder?
Answer: Its value is 12 pmol/ml/µg prt.

Question: What about the “cAMP production with saturated glucagon peptide; test compound '1 nM'” value (“cAMP production … test compound '1 nM'” below) of the same binder?
Answer: Its value is 14 pmol/ml/µg prt.

Question: How did the “cAMP production … test compound 1 nM” value turn out when HAQGTFTSD[Bip(OMe)][Bip(Pyr)] [Seq. ID. No. 10: HAQGTFTSD-Bip(OMe)-Bip(Pyr)] was run?
Answer: The value was 15 pmol/ml/µg prt.

Question: And the “cAMP production … test compound 10 nM” value?
Answer: The value was 12 pmol/ml/µg prt.

Question: What about the “cAMP production … test compound 100 nM” value of the same binder?
Answer: Its value is 8 pmol/ml/µg prt.

Question: What about the “cAMP production … test compound 10 µM” value of the same binder?
Answer: Its value is 2 pmol/ml/µg prt.

Question: And the “cAMP production … test compound '1 nM'” value?
Answer: The value was 4 pmol/ml/µg prt.

Question: HAQGTFTSD[Bip(OMe)][Bip(2CF3)] [Seq. ID. No. 12: HAQGTFTSD-Bip(OMe)-Bip(2CF3)] was tested. Which “cAMP production … test compound 1 nM” value did it give?
Answer: The value was 5 pmol/ml/µg prt.

Question: And the “cAMP production … test compound 10 nM” value?
Answer: Its value is 3 pmol/ml/µg prt.

Question: And the “cAMP production … test compound 100 nM” value?
Answer: The value was 0 pmol/ml/µg prt.

Question: What about the “cAMP production … test compound 10 µM” value of the same binder?
Answer: Its value is 0 pmol/ml/µg prt.

Question: What about the “cAMP production … test compound '1 nM'” value of the same binder?
Answer: Its value is 0 pmol/ml/µg prt.

Question: With H[Ac3c]QGTFTSD[Bip(OMe)][Bip(2F)] [Seq. ID. No. 19: H-(ACP)-QGTFTSD-Bip(OMe)-Bip(2F)] as the binder, how does the “cAMP production … test compound 1 nM” value read?
Answer: Its value is 5 pmol/ml/µg prt.

Question: And the “cAMP production … test compound 10 nM” value?
Answer: Its value is 3 pmol/ml/µg prt.

Question: And the “cAMP production … test compound 100 nM” value?
Answer: Its value is 1 pmol/ml/µg prt.

Question: What about the “cAMP production … test compound 10 µM” value of the same binder?
Answer: The value was 0 pmol/ml/µg prt.

Question: And the “cAMP production … test compound '1 nM'” value?
Answer: Its value is 0 pmol/ml/µg prt.

Question: How did the “cAMP production … test compound 1 nM” value turn out when H[Ac3c]QGTFTSD[Bip(OMe)][Bip(2CF3)] (not fully specified) [Seq. ID. No. 20: H-(ACP)-QGTFTSD-Bip(OMe)-Bip(2CF3)] was run?
Answer: The value was 5 pmol/ml/µg prt.

Question: And the “cAMP production … test compound 10 nM” value?
Answer: Its value is 2 pmol/ml/µg prt.

Question: And the “cAMP production … test compound 100 nM” value?
Answer: The value was 0 pmol/ml/µg prt.

Question: And the “cAMP production … test compound 10 µM” value?
Answer: Its value is 0 pmol/ml/µg prt.

Question: And the “cAMP production … test compound '1 nM'” value?
Answer: The value was 0 pmol/ml/µg prt.

Question: What does the source list for HSQGTXTSDXX (α-Me-2F-Phe at 6; Bip(OMe) at 10; Bip(Pyr) at 11) [Seq. ID. No. 22: HSQGT-(α-Me-2F-Phe)-TSD-Bip(OMe)-Bip(Pyr)]?
Answer: cAMP production with saturated glucagon peptide; test compound 1 nM: 21 pmol/ml/µg prt; cAMP production with saturated glucagon peptide; test compound 10 nM: 19 pmol/ml/µg prt; cAMP production with saturated glucagon peptide; test compound 100 nM: 18 pmol/ml/µg prt; cAMP production with saturated glucagon peptide; test compound 10 µM: 16 pmol/ml/µg prt; cAMP production with saturated glucagon peptide; test compound '1 nM': 18 pmol/ml/µg prt

Question: Which results are given for HAQGT[αMePhe(2-F)]TSD[Bip(OMe)][Bip(Pyr)] [Seq. ID. No. 26: HAQGT-(α-Me-2F-Phe)-TSD-Bip(OMe)-Bip(Pyr)]?
Answer: cAMP production with saturated glucagon peptide; test compound 1 nM: 15 pmol/ml/µg prt; cAMP production with saturated glucagon peptide; test compound 10 nM: 12 pmol/ml/µg prt; cAMP production with saturated glucagon peptide; test compound 100 nM: 8 pmol/ml/µg prt; cAMP production with saturated glucagon peptide; test compound 10 µM: 2 pmol/ml/µg prt; cAMP production with saturated glucagon peptide; test compound '1 nM': 4 pmol/ml/µg prt

Question: What does the source list for B1?
Answer: cAMP production with saturated glucagon peptide; test compound 1 nM: 3 pmol/ml/µg prt; cAMP production with saturated glucagon peptide; test compound 10 nM: 1 pmol/ml/µg prt; cAMP production with saturated glucagon peptide; test compound 100 nM: 0 pmol/ml/µg prt; cAMP production with saturated glucagon peptide; test compound 10 µM: 0 pmol/ml/µg prt; cAMP production with saturated glucagon peptide; test compound '1 nM': 0 pmol/ml/µg prt

biological target: Human GLP-1 receptor (human, UniProt P43220 24-463); experiment: cell-based or functional assay
Sequence (P43220 24-463): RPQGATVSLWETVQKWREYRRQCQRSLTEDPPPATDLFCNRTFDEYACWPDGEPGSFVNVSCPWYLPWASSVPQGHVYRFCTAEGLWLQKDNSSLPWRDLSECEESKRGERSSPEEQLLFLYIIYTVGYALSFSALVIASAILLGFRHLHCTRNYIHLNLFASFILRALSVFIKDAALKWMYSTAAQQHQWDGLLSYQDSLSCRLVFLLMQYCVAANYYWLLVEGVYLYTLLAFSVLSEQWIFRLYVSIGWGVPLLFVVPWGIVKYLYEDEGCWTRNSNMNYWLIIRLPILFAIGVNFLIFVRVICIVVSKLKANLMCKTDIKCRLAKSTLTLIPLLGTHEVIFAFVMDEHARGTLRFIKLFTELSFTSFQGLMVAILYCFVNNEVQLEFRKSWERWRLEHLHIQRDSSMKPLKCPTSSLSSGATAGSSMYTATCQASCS

Question: Which “cAMP release, % activity with respect to control; test compound 1 nM” value does the source give for HSQGTXTSDXX (α-Me-2F-Phe at 6; Bip(OMe) at 10; Bip(2Me) at 11) [Seq. ID. No. 21: HSQGT-(α-Me-2F-Phe)-TSD-Bip(OMe)-Bip(2Me)] here?
Answer: The value was 39%.

Question: What about the “cAMP release, % activity with respect to control; test compound 10 nM” value of the same binder?
Answer: The value was 80%.

Question: And the “cAMP release, % activity with respect to control; test compound 100 nM” value?
Answer: Its value is 86%.

Question: And the “cAMP release, % activity with respect to control; test compound 1 µM” value?
Answer: Its value is 95%.

Question: What about the “cAMP release, % activity with respect to control; test compound 10 µM” value of the same binder?
Answer: Its value is 98%.

Question: What does the source list for HSQGTFTSD[Bip(OMe)][Bip(Pyr)] (not fully specified (C-terminus); printed as HSQGTFTSD-Bip(OMe)-Bip(Pyr)) [Seq. ID. No. 6: HSQGTFTSD-Bip(OMe)-Bip(Pyr)]?
Answer: cAMP release, % activity with respect to control; test compound 1 nM: 39%; cAMP release, % activity with respect to control; test compound 10 nM: 80%; cAMP release, % activity with respect to control; test compound 100 nM: 88%; cAMP release, % activity with respect to control; test compound 1 µM: 96%; cAMP release, % activity with respect to control; test compound 10 µM: 99%

Reference: patent US20130225488A1 (CADILA HEALTHCARE, published 2013)
